Publication PMC1669733

Legend:
[1] = target: His-Rep 120–362 (Mungbean yellow mosaic India virus (MYMIV)); assay: sucrose gradient centrifugation
[2] = target: His-Rep 1–362 (full-length Rep protein of Mungbean yellow mosaic India virus) (Mungbean yellow mosaic India virus (MYMIV)); assay: sucrose gradient centrifugation

For His-Rep 120–362 (domain or fragment), the stoichiometry N [1] was 24.
In the case of “His-Rep 1–362 (full-length Rep protein of Mungbean yellow mosaic India virus) (enzyme)”, the stoichiometry N [2] is reported as 24.
